The values that follow come from article PMC11721787 (Science translational medicine, 2023).

The target of assay [1] is PUUV Gn/Gc on virus-like particles (VLPs) (Puumala orthohantavirus, strain of the …, UniProt A0A0B4U5I0). In words: ELISA.
The target in the next assay is PUUV Gn^H (head of Gn) (Puumala virus, UniProt P27312). In words: crystal structure.
A further assay addresses PUUV Gc ectodomain (Puumala virus, UniProt P27312). Put plainly: crystal structure.

Sequence of PUUV Gc ectodomain (P27312 659-1093): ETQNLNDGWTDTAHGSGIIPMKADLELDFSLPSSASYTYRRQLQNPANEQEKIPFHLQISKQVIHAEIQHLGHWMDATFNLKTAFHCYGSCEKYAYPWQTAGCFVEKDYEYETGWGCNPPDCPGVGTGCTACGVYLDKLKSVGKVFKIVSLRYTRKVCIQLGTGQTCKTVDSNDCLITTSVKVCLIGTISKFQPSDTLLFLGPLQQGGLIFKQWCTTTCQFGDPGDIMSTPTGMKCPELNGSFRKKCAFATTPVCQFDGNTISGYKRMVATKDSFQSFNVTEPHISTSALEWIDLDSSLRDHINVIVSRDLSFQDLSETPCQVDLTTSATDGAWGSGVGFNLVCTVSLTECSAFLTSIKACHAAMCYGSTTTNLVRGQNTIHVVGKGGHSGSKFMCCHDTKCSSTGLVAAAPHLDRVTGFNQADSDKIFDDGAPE
Sequence of PUUV Gn^H (head of Gn) (P27312 20-381): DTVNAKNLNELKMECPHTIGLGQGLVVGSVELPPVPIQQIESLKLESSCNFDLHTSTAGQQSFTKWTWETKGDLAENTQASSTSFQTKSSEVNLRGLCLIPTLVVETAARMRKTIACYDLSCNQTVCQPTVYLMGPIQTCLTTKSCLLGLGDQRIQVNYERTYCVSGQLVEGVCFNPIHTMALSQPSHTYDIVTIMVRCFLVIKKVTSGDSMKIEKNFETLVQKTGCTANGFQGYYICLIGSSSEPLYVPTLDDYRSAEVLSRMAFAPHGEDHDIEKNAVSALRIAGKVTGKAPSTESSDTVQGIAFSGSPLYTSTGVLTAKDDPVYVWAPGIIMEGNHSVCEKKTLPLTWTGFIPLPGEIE

B1: ADI-42898 monovalent antibody-binding fragment (Fab) (Fab, V domains shown)
VH: QVQLVESGGGVVQPGRSLRLSCAASGFTFSSYAMHWVRQAPGKGLEWVAVTWFDVSKKDYADSVKGRFTISRDNSKNTLYLQMNSLRAEDTAVYYCARNLIRYSGSYFPVHGMDVWGQGTTVTVSS
VL: DIVMTQSPLSLPVTPGEPASISCRSSQSLLHTYGYNCLDWYLQRPGQSPQLLISLGSYRASGVPDRFSGSGSGTDFTLKISRVEAEDVGVYYCMQALHPFTFGGGTKVEIK
For B1, the binding result in assay [1] is “binds”.

B2: ADI-42898 single-chain, variable domain fragment (scFv) (scFv, V domains shown)
VH: B1 VH
VL: B1 VL
B2: the binding result in the assay with PUUV Gn^H (head of Gn) and in the assay with PUUV Gc ectodomain was “binds” throughout.

B3: ADI-42898 (monoclonal antibody, IgG) (antibody, V domains shown)
VH: B1 VH
VL: B1 VL
As to B3, the binding result in assay [1] is on record as “binds”.
